Experimental data from patent publication US20250136910A1, “DEVICES FOR USE AS BLOOD BRAIN BARRIER MODELS” (Merck Sharp & Dohme LLC, priority 2023, published 2025).

How the values were obtained:
[1] = test system: GFP HUVECs; assay: Ang-1 addition to perfusion media, channels endothelialized with GFP HUVECs; format: cell-based, human; conditions: complete Vasculife (with VEGF) 3 days, then Ang-1 added 15 ng mL^−1; perfused at 5 μL min^−1
Method: FIGS. 25a-25c show immunostained VE-Cadherin junctions for channels endothelialized with GFP HUVECs (30M mL^−1) after being exposed to different media compositions. […] This gel was sustained for a total of twelve days while being perfused at 5 μL min^−1.
For the HUVECs, a mature monolayer was able to be obtained through modulation of the media composition and utilizing biomolecules that play an important role in endothelial cell function. In addition to the removal of VEGF, another avenue explored was the addition of Angiopoetin-1 (Ang-1). Angiopoetin-1 is a glycoprotein that is a known ligand for the endothelial cell-specific receptor tyrosine kinase, Tie-2 receptor. In vascular development during embryogenesis, VEGF and Ang-1 play essential and complementary roles. Vascular endothelial growth factor (VEGF) is responsible for the initial formation of the vascular plexus, while Angiopoetin-1 (Ang-1) is responsible for the subsequent remodeling of the vasculature into a network of mature vessels. […] The incorporation of this glycoprotein was first assessed using hydrogels endothelialized with GFP HUVECs. Three different media strategies were employed to assess the effect of adding Ang-1 to the perfusion media. […]

[2] = test system: GFP HBMECs; assay: Ang-1 addition to perfusion media, serpentine gel endothelialized with GFP HBMECs; format: cell-based, human; conditions: complete Vasculife 3 days, then Ang-1 at 15 ng/ml for 3 days; perfused at 5 μL min^−1; day 6
Method: GFP HBMECs was seeded in the vascular channel at 30M mL^−1and perfused at 5 μL min^−1for duration of the study. […] Overlay and individual channels of GFP HBMEC and VE-Cadherin shown.
Once this was confirmed using HUVECs, the incorporation of Ang-1 to the perfusion media was tested on a gel endothelialized with GFP HBMECs. The same strategy was employed where the gel was perfused for 3 days with complete Vasculife media, then switched to a Vasculife media where Ang-1 was added in at 15 ng/ml for the remaining three days of perfusion culture. Images of cell morphology in the serpentine on days 3, 6, and after fixing and immunostaining for VE-Cadherin are seen in FIG. 26a. […] A magnified portion of the center channel is shown in FIG. 26b, which highlights the morphology of the GFP HBMECs and VE-Cadherin and includes nuclei in the overlay.

B1: Ang-1: glycoprotein that is a known ligand for the endothelial cell-specific receptor tyrosine kinase, Tie-2 receptor (protein, UniProt Q15389 16-498, looked up)
Angiopoietin-1: HIGCSNQRRSPENSGRRYNRIQHGQCAYTFILPEHDGNCRESTTDQYNTNALQRDAPHVEPDFSSQKLQHLEHVMENYTQWLQKLENYIVENMKSEMAQIQQNAVQNHTATMLEIGTSLLSQTAEQTRKLTDVETQVLNQTSRLEIQLLENSLSTYKLEKQLLQQTNEILKIHEKNSLLEHKILEMEGKHKEELDTLKEEKENLQGLVTRQTYIIQELEKQLNRATTNNSVLQKQQLELMDTVHNLVNLCTKEGVLLKGGKREEEKPFRDCADVYQAGFNKSGIYTIYINNMPEPKKVFCNMDVNGGGWTVIQHREDGSLDFQRGWKEYKMGFGNPSGEYWLGNEFIFAITSQRQYMLRIELMDWEGNRAYSQYDRFHIGNEKQNYRLYLKGHTGTAGKQSSLILHGADFSTKDADNDNCMCKCALMLTGGWWFDACGPSNLNGMFYTAGQNHGKLNGIKWHYFKGPSYSLRSTTMMIRPLDF
For B1, the “endothelial monolayer retention in perfusion culture” value [1] was “retained an endothelial monolayer for twelve days of perfusion culture” and the “endothelium confluence by VE-Cadherin immunostaining” value [2] was “a confluent endothelium of brain microvascular endothelial cells lining the serpentine channel has been achieved”.
